# Results as given in publication PMC10043283, “Neuraminidase 1 promotes renal fibrosis development in male mice” (Nature Communications, 2023).
# B1: human ALK5_(162-403aa) recombinant protein (domain or fragment, UniProt P36897 162-403, looked up)
# chain: EDPSLDRPFISEGTTLKDLIYDMTTSGSGSGLPLLVQRTIARTIVLQESIGKGRFGEVWRGKWRGEEVAVKIFSSREERSWFREAEIYQTVMLRHENILGFIAADNKDNGTWTQLWLVSDYHEHGSLFDYLNRYTVTVEGMIKLALSTASGLAHLHMEIVGTQGKPAIAHRDLKSKNILVKKNGTCCIADLGLAVRHDSATDTIDIAPNHRVGTKRYMAPEVLDDSINMKHFESFKRADIYA
# notes: human ALK5 (TGFβ type I receptor), amino acids 162-403; also called amino acid 162–403 region of ALK5; source: bought: Sino Biological Inc
# Molecular target: T1, Human NEU1 recombinant protein (human, UniProt Q99519 48-415)
# T1 construct: human neuraminidase 1 (NEU1), recombinant; Amine-coupled to a CM5 chip; also called recombinant human NEU1; source: recombinant protein, gifted by Dr. Xiao Yibei lab
# Assay: SPR; Biacore T200, 25 °C, HBS-EP+ pH 7.4; human NEU1 amine-coupled to CM5 chip (8000–10,000 RU); ALK5 recombinant proteins flowed at 7.80–500 nM; 1:1 binding model
# Details: both partners purified
binder,measurement,value
B1,Kd,3.14 nM
